Data taken from article PMC10027511, “Disordered proteins mitigate the temperature dependence of site-specific binding free energies” (The Journal of Biological Chemistry, 2023).
Where two headings read alike, the source gives them in different places.

Legend:
[1] = target: N-terminal SH3 domain of Drk (T22G); test: 1H-13C HMQC titration of SH3 into 13C-Ile Sos site 4 (NMR TITAN); format: binding, Drosophila melanogaster; conditions: for Kd: 51.5 μM Sos site 4, 20 mM sodium phosphate pH 7.5, 5% D2O; for Kd / koff / kon / ΔGA°′‡ (activation free energy of association) / ΔGD°′ (dissociation free energy) / ΔGD°′‡ (activation free energy of dissociation): single measurement, bootstrap; for koff / kon / ΔGA°′‡ (activation free energy of association) / ΔGD°′ (dissociation free energy) / ΔGD°′‡ (activation free energy of dissociation): pH 7.5
Text: As an alternative, we measured binding of Sos and SH3 from the opposite perspective, that is, by monitoring the interaction via Sos by moving the NMR-active nuclei from SH3 to Sos. Specifically, we isotopically enriched (^13C-δ1 methyl) isoleucines in the site 4 protein construct. This construct has three isoleucines: I1384 is in site 4; I1394 is adjacent to site 4; and I1325 is likely distant from site 4. Assignments were made via mutagenesis (Supplemental Material, Fig. S5). […] High-quality fits were obtained using two-dimensional lineshape analysis (Figs. S6–S10), yielding affinities (Table 1) similar to those from ITC (Table 2), and site 4 peptide, but only at low temperatures (Table 1) ([34]).
Figure 3 ^1H–^13C HMQC titration of Sos site 4 at 35 °C.A, spectra. B, simulated spectra from TITAN fits. C, van’t Hoff and Eyring analyses of ^1H–^13C HMQC titrations. Measurements were made with a constant concentration of 51.5 μM Sos site 4, with titration points signified by crosspeaks of different colors. SH3 concentrations are 270, 122, 100, 75.0, 50.0, 37.5, 25.0, 12.5, 6.25, 3.13, […], 0.781, 0.391, and 0 μM. HMQC, heteronuclear multiple quantum correlation; Sos, Son of sevenless.
NMR data were acquired using Bruker Avance III HD spectrometers equipped with QCI cryoprobes (^1H Larmor frequencies of 500, 470 MHz for ^19F), or TCI cryoprobes (^1H Larmor frequencies of 850 MHz, 213 MHz for ^13C). Data were processed using NMRpipe (2020.171.18.39). Spectra across different temperatures are referenced to trimethylsilylpropanesulfonate.
^1H–^13C correlation spectra were acquired using a heteronuclear multiple quantum correlation experiment (optimized for the methyl transverse relaxation optimized spectroscopy effect) ([66]) with between 8 and 40 scans, depending on the signal/noise of the Ile1384 peak. The ^1H sweep width was 15 PPM using 5120 complex points and a center frequency at 4.7 PPM. Forty-eight complex points were collected in the indirect dimension, with a sweep width of 5 PPM, and a center frequency of 12.5 PPM. The water signal was suppressed and dephased using a combination of presaturation and selective shaped pulses. Sos site 4 protein was exchanged into 20 mM sodium phosphate, pH 7.5 plus 5% (v/v) D2O using a PD-10 midi desalting column (Cytiva); its concentration was then adjusted to 51.5 μM. Four hundred microliters of Sos site 4 solution were used to dissolve lyophilized SH3 for the initial titration point, and then spectra were acquired at 4.2, 15, 25, 35, and 45 °C. The solution containing only Sos site 4 was used for a series of dilutions to obtain SH3 titration points of 270, 122, 100, 75.0, 50.0, 37.5, 25.0, 12.5, 6.25, 3.13, 1.56, 0.781, 0.391, and 0 μM.
^1H–^13C heteronuclear multiple quantum correlation titration measurements of SH3 into [^13CH3-Ile]-labeled Sos were analyzed using NMR TITAN, version 1.6 ([34]). Measurements for each temperature were fit to a two-state interaction model, and parameter uncertainties were estimated from 100 bootstrapped replicas ([34], [67]). Ile1384, Ile1394, Ile1325, and one pseudo peak were fit as a single spin group to account for overlapping resonances. Measurements across multiple temperatures were then fitted to the van’t Hoff and Eyring equations to determine Δ HD°′ , TΔ SD,298.15K°′ , Δ HA°′‡ , TΔ SA,298.15K°′‡ , Δ HD°′‡ , and TΔ SD,298.15K°′‡ . Errors generated from TITAN fits were used to perform weighted least squares regressions, and the reported uncertainties are the 95% confidence intervals of fits.

[2] = tested on: N-terminal SH3 domain of Drk (T22G); test: ITC of Sos constructs (cell) with SH3 (syringe); format: binding, Drosophila melanogaster; conditions: for Kd: single-site model
Procedure: volume solution of SH3 was prepared in the same buffer, at an identical concentration of SH3. Measurements were
made at 4.2, 15, 25, 35 and 45 °C. The sample was then removed, diluted using the larger SH3 solution and returned
(§1) µM, with SH3 at 270 µM (Figure S3, Table S2).

[3] = target: T1, N-terminal SH3 domain of Drk (T22G, 19F-W36) (Drosophila melanogaster, UniProt Q08012, T22G); test: 19F NMR titration of SH3 with Sos site 4 (two-state and bidentate fits); format: binding
T1 construct: the N-terminal SH3 domain of Drk (UniProt ID: Q08012); 19F label: 5-fluorotryptophan at W36 (chemical label on the side chain); made in house
T1 sequence (Q08012 1-58 T22G): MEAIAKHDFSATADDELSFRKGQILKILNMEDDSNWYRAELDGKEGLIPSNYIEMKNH
Procedure: Data were acquired using Bruker Avance III HD spectrometers equipped with a QCI cryoprobe (1H Larmor frequencies of 500, and 470 MHz for 19F). Data was processed using NMRpipe (2020.171.18.39) and referenced to trimethylsilylpropanesulfonate to account the temperature dependence of chemical shift. […]
site 4 (non-MBD tagged construct) was exchanged into of 50 mM HEPES, 50 mM bis-tris propane, 50 mM sodium acetate pH 7.5 plus 5% (v/v) D2O using a PD-10 Midi column (Cytiva) selecting the fractions with the highest concentration for the titration. The Sos solution was used to dissolved one aliquot of SH3, and a second, larger […]
volume solution of SH3 was prepared in the same buffer, at an identical concentration of SH3. Measurements were made at 4.2, 15, 25, 35 and 45 °C. The sample was then removed, diluted using the larger SH3 solution and returned […]
as §1

[4] = 298 K, linear Eyring fit, 95% confidence interval
[5] = linear Eyring fit, 95% confidence interval
[6] = 4.2 °C, SMG construct, 20 mM sodium phosphate pH 7.5, knockout subtracted, three fits
[7] = 4.2 °C, bidentate fit, strong site
[8] = 4.2 °C, bidentate fit, weak/nonspecific site
[9] = 15 °C, bidentate fit, strong site
[10] = 15 °C, bidentate fit, weak/nonspecific site
[11] = 25 °C, bidentate fit, strong site
[12] = 25 °C, bidentate fit, weak/nonspecific site
[13] = 35 °C, bidentate fit, strong site
[14] = 35 °C, bidentate fit, weak/nonspecific site
[15] = 45 °C, bidentate fit, strong site
[16] = 45 °C, bidentate fit, weak/nonspecific site

B1: Site 4: Sos residues 1177 to 1405, L1203A, L1372A, R1375A, C1306S, C1357S, L1346A, R1349A, R1350A (protein, UniProt P26675 1177-1405, looked up, variant L1203A L1372A R1375A C1306S C1357S L1346A R1349A R1350A)
chain: TSSWSGTPQHTRTDQNNGEVSVPAPHAPKKPGAHVWANNNSTLASASAMDVVFSPALPEHLPPQSLPDSNPFASDTEAPPSPLPKLVVSPRHETGNRSPFHGRMQNSPTHSTASTVTLTGMSTSGGEEFSAGGFYFNSAHQGQPGAVPISPHVNVPMATNMEYRAVPPPAPPAAKERTESSADMAQKRQAPDAPTAPPADGELSPPPIPPRLNHSTGISYLRQSHGKSK
With B1 the Kd ([1]; 4.2 °C) was 3 ± 0.2 µM, the koff ([1]; 4.2 °C) was 0.093 ± 0.002 10^3 s^−1 and the kon ([1]; 4.2 °C) was 0.31 ± 0.02 10^8 M^−1 s^−1. The “ΔGA°′‡ (activation free energy of association)” value ([1]; 4.2 °C) was 6.69 ± 0.07 kcal/mol, the “ΔGD°′ (dissociation free energy)” value ([1]; 4.2 °C) was 7.01 ± 0.07 kcal/mol and the “ΔGD°′‡ (activation free energy of dissociation)” value ([1]; 4.2 °C) was 13.70 ± 0.02 kcal/mol. The “temperature dependence of ΔGD°′‡ and ΔGA°′‡” value ([1]; 4.2–45 °C) was “do not change with temperature”, the Kd ([1]; 15 °C) was 4.5 ± 0.2 µM and the koff ([1]; 15 °C) was 0.25 ± 0.09 10^3 s^−1. For the same molecule, the kon ([1]; 15 °C) was 0.56 ± 0.03 10^8 M^−1 s^−1, the “ΔGA°′‡ (activation free energy of association)” value ([1]; 15 °C) was 6.64 ± 0.06 kcal/mol and the “ΔGD°′ (dissociation free energy)” value ([1]; 15 °C) was 7.05 ± 0.04 kcal/mol. For the same molecule, the “ΔGD°′‡ (activation free energy of dissociation)” value ([1]; 15 °C) was 13.69 ± 0.04 kcal/mol, the Kd ([1]; 25 °C) was 6.4 ± 0.2 µM and the koff ([1]; 25 °C) was 0.62 ± 0.03 10^3 s^−1. For the same molecule, the kon ([1]; 25 °C) was 0.97 ± 0.06 10^8 M^−1 s^−1, the “ΔGA°′‡ (activation free energy of association)” value ([1]; 25 °C) was 6.56 ± 0.06 kcal/mol and the “ΔGD°′ (dissociation free energy)” value ([1]; 25 °C) was 7.09 ± 0.03 kcal/mol. The “ΔGD°′‡ (activation free energy of dissociation)” value ([1]; 25 °C) was 13.64 ± 0.05 kcal/mol, the Kd ([1]; 35 °C) was 9.7 ± 0.2 µM and the koff ([1]; 35 °C) was 1.25 ± 0.04 10^3 s^−1. The kon ([1]; 35 °C) was 1.29 ± 0.05 10^8 M^−1 s^−1, the “ΔGA°′‡ (activation free energy of association)” value ([1]; 35 °C) was 6.62 ± 0.04 kcal/mol and the “ΔGD°′ (dissociation free energy)” value ([1]; 35 °C) was 7.07 ± 0.02 kcal/mol. For the same molecule, the “ΔGD°′‡ (activation free energy of dissociation)” value ([1]; 35 °C) was 13.69 ± 0.03 kcal/mol, the Kd ([1]; 45 °C) was 17.8 ± 0.5 µM and the koff ([1]; 45 °C) was 4.4 ± 0.2 10^3 s^−1. The kon ([1]; 45 °C) was 2.5 ± 0.1 10^8 M^−1 s^−1, the “ΔGA°′‡ (activation free energy of association)” value ([1]; 45 °C) was 6.45 ± 0.05 kcal/mol and the “ΔGD°′ (dissociation free energy)” value ([1]; 45 °C) was 6.91 ± 0.03 kcal/mol. The “ΔGD°′‡ (activation free energy of dissociation)” value ([1]; 45 °C) was 13.36 ± 0.05 kcal/mol, the “TΔSA°′‡ (activation entropy of association)” value [1, 4] was 1 ± 1 and the “TΔSD°′‡ (activation entropy of dissociation)” value [1, 4] was 1 ± 2. The “TΔSD°′ (van't Hoff)” value ([1]; 298 K, linear van't Hoff fit, 95% confidence interval) was 0 ± 2 kcal/mol, the “ΔHA°′‡ (activation enthalpy of association)” value [1, 5] was 7 ± 1 kcal/mol and the “ΔHD°′‡ (activation enthalpy of dissociation)” value [1, 5] was 14 ± 1 kcal/mol. The “ΔHD°′ (van't Hoff)” value ([1]; linear van't Hoff fit of 4.2-45 °C data, 95% confidence interval) was 7 ± 2 kcal/mol, the Kd [2, 6] was 3 ± 1 µM and the “ΔHD°′” value [2, 6] was 2.8 ± 0.1 kcal/mol. The Kd ([2]; 35 °C (35.1 in Table S1), SMG construct, 20 mM sodium phosphate pH 7.5, knockout subtracted, three fits) was 14 ± 3 µM, the “sign of ΔCP,D” value ([2]; from ΔHD°′ at 4.2 and 35 °C) was “positive” and the “stoichiometry before knockout subtraction” value ([2]; unsaturated after >3 mole equivalents, specific plus nonspecific binding) was > 1. The “Site 1 koff” value [3, 7] was 0.080 103 s-1, the “Site 1 kon” value [3, 7] was 0.37 108 s-1 M-1 and the Kd ([3]; 4.2 °C, bidentate fit, strong site, 50 mM HEPES, 50 mM bis-tris propane, 50 mM sodium acetate pH 7.5, 5% D2O, MG construct, read-out: Site 1 KD) was 2.15 µM. For the same molecule, the “Site 2 koff” value [3, 8] was 11 ± 4 103 s-1, the “Site 2 kon” value [3, 8] was 0.15 108 s-1 M-1 and the Kd ([3]; 4.2 °C, bidentate fit, weak/nonspecific site, read-out: Site 2 KD) was 800 µM. The Kd ([3]; 4.2 °C, two-state model (poor fit), read-out: KD) was 0.3 µM, the “Site 1 koff” value [3, 9] was 0.239 103 s-1 and the “Site 1 kon” value [3, 9] was 0.49 108 s-1 M-1. For the same molecule, the Kd ([3]; 15 °C, bidentate fit, strong site, pH 7.5, read-out: Site 1 KD) was 4.9 µM, the “Site 2 koff” value [3, 10] was 15 ± 4 103 s-1 and the “Site 2 kon” value [3, 10] was 0.10 108 s-1 M-1. For the same molecule, the Kd ([3]; 15 °C, bidentate fit, weak/nonspecific site, read-out: Site 2 KD) was 1500 µM, the “Site 1 koff” value [3, 11] was 0.667 103 s-1 and the “Site 1 kon” value [3, 11] was 0.63 108 s-1 M-1. The Kd ([3]; 25 °C, bidentate fit, strong site, pH 7.5, read-out: Site 1 KD) was 10.6 µM, the “Site 2 koff” value [3, 12] was 19 ± 5 103 s-1 and the “Site 2 kon” value [3, 12] was 0.06 108 s-1 M-1. For the same molecule, the Kd ([3]; 25 °C, bidentate fit, weak/nonspecific site, read-out: Site 2 KD) was 3000 µM, the “Site 1 koff” value [3, 13] was 1.74 103 s-1 and the “Site 1 kon” value [3, 13] was 0.80 108 s-1 M-1. The Kd ([3]; 35 °C, bidentate fit, strong site, pH 7.5, read-out: Site 1 KD) was 21.7 µM, the “Site 2 koff” value [3, 14] was 23 ± 7 103 s-1 and the “Site 2 kon” value [3, 14] was 0.04 108 s-1 M-1. For the same molecule, the Kd ([3]; 35 °C, bidentate fit, weak/nonspecific site, read-out: Site 2 KD) was 6000 µM, the “Site 1 koff” value [3, 15] was 4.29 103 s-1 and the “Site 1 kon” value [3, 15] was 1.01 108 s-1 M-1. For the same molecule, the Kd ([3]; 45 °C, bidentate fit, strong site, pH 7.5, read-out: Site 1 KD) was 42.6 µM, the “Site 2 koff” value [3, 16] was 30 ± 10 103 s-1 and the “Site 2 kon” value [3, 16] was 0.03 108 s-1 M-1. The Kd ([3]; 45 °C, bidentate fit, weak/nonspecific site, read-out: Site 2 KD) was 10000 µM.
